Test results from patent US8431111B2, “Peptide imaging agents” (GE Healthcare Limited, priority 2007, dated 2013).
Where a SMILES comes first, the peptide text is derived from it. Bridges are numbered along the chain shown (N, C = ends). The star is where a group is joined. X1 = CC1=CC(C)(C)N(CCCS(=O)(=O)O)c2cc3c(cc21)/C(=C/C=C/C1=[N+](CCCS(=O)(=O)O)c2ccc(S(=O)(=O)[O-])cc2C1(C)CCCC(=O)*)C=C(C(C)(C)C)O3

Test: Limited acute dose toxicity study in male rats
Format: in vivo, rat
Method: A limited acute dose toxicity study was conducted to investigate the tolerance of Compound 6 at 100 times the preclinical imaging dose (50 nmol/kg body weight). The compound was injected intravenously in male rats, and the animals were sacrificed at 1, 14, 21 and 28 days post injection (p.i.). At necropsy, the major organs were inspected for gross pathology, and the kidneys were taken into neutral buffered formalin for subsequent histomorphological evaluation. A weak blue colouration of the skin and a moderate blue colouration of the urine were observed immediately after injection, which disappeared within 1 day p.i. […] The other minor changes seen were incidental and common in young adult laboratory rats. Strong fluorescence staining of blood vessels in the kidney was observed on day 1 p.i.

## CC(=O)N[C@@H](C)C(=O)NCC(=O)N[C@@H](CO)C(=O)N[C@H]1CSSC[C@@H](C(=O)N[C@@H](Cc2ccc(O)cc2)C(=O)N[C@@H](CCC(=O)O)C(=O)N[C@H](C(=O)N[C@@H](CCC(=O)O)C(=O)NCC(=O)N[C@H](C(=O)NCC(=O)NCC(=O)NCC(=O)N[C@@H](CCCCNC(=O)CCCC2(C)C(/C=C/C=C3\C=C(C(C)(C)C)Oc4cc5c(cc43)C(C)=CC(C)(C)N5CCCS(=O)(=O)O)=[N+](CCCS(=O)(=O)O)c3ccc(S(=O)(=O)[O-])cc32)C(N)=O)[C@@H](C)O)[C@@H](C)O)NC(=O)[C@H](Cc2c[nH]c3ccccc23)NC(=O)[C@@H]2CSSC[C@H](NC(=O)[C@H](Cc3ccc(O)cc3)NC1=O)C(=O)N[C@@H](CO)C(=O)NCC(=O)N1CCC[C@H]1C(=O)N1CCC[C@H]1C(=O)N[C@@H](CCCNC(=N)N)C(=O)N[C@@H](Cc1ccccc1)C(=O)N[C@@H](CCC(=O)O)C(=O)N2 (stereo partly drawn) [Compound 6] (Ac-AGSCYCSGPPRFECWCYETEGTGGGK(X1)-NH2; disulfide 4-16, 6-14)
100 times the anticipated clinical dose
  Tolerance of single intravenous administration: well tolerated and without any drug substance related adverse effects
Day 1 p.i.
  Gross appearance of the kidneys at necropsy: diffusely green
i.v., weak blue colouration of skin, moderate of urine, immediately after injection
  Time until blue colouration of skin and urine disappeared: ≤ 1 day p.i.
